Data reported in the supplement of paper PMC6757056.
± gives the standard deviation of the averaged measurements.

B1: library; a variant is named by its letters at N, in order (parent)
chain: GCUGUCACCGGUGUAUUACCCUAGUGGUCGACCGGUCUGAUGAGUCUNNNNNNAGACGAAACAGC

What was measured:
hypoxanthine [1] = variants of: B1; experiment: FACS-Seq fitted mean relative fluorescence mCherry/BFP without ligand (log10 relative fluorescence); ligand: hypoxanthine (xanthine aptamer); higher = higher reporter protein expression; conditions: HEK293T, ligand present: no
Outline: (§1)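 HEK293T libraries were lentivirally transduced with an mCherry reporter carrying the ribozyme switch and an EF1α-BFP marker, enriched, and incubated for 48 h with or without ligand before sorting into 6 bins by mCherry/BFP. Genomic DNA from each bin was PCR-amplified, barcoded and sequenced on MiSeq. Fluorescence is the fitted normal mean of the bin counts. The fit used log10(mCherry/BFP), and means were scaled to five spiked-in control ribozymes.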

hypoxanthine [2] = variants of: B1; experiment: normalized RNA/DNA level with ligand (relative to sTRSVctl = 100) (log10 (% of sTRSVctl)); ligand: hypoxanthine (xanthine aptamer); higher = less ribozyme self-cleavage, higher mRNA level; conditions: ligand concentration (+) RNA-Seq: 5 mM, HEK293T, reporter: mCherry (pCS4076), ligand present: yes
Outline: (§2)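 RNA level was computed as RNA reads over DNA reads divided by a spiked-in non-cleaving sequence or by the top sequences, then scaled and log-transformed. Scaling was ×100 with log10, the top group was 25 sequences, and the threshold was ≥100 DNA reads. The reads came from HEK293T cells transfected at 4 µg per 6-well well with ribozyme switch library plasmids (mCherry, or eGFP in some ligand experiments). Total RNA was extracted with EDTA 72 h after transfection, with any ligand added 1 h before it.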

hypoxanthine [3] = variants of: B1; experiment: normalized RNA/DNA level without ligand (relative to sTRSVctl = 100) (log10 (% of sTRSVctl)); ligand: hypoxanthine (xanthine aptamer); higher = less ribozyme self-cleavage, higher mRNA level; conditions: HEK293T, reporter: mCherry (pCS4076), ligand present: no
Outline: as §2

hypoxanthine [4] = variants of: B1; experiment: FACS-Seq fitted mean relative fluorescence mCherry/BFP with ligand (log10 relative fluorescence); ligand: hypoxanthine (xanthine aptamer); ligand concentration (+) FACS-Seq: 5 mM; higher = higher reporter protein expression; conditions: HEK293T, ligand present: yes
Outline: as §1

Row | Variant | FACS-Seq fitted mean (log10) (hypoxanthine [1]) | normalized RNA/DNA level with ligand (log10) (hypoxanthine [2]) | normalized RNA/DNA level without ligand (log10) (hypoxanthine [3]) | FACS-Seq fitted mean (log10) (hypoxanthine [4])
1 | AGUCGG | 0.0517 ± 0.00086 | 1.85 ± 0.049 | 1.48 ± 0.085 | 0.38 ± 0.078
2 | AGUCGU | 0.577 ± 0.17 | 1.903 ± 0.013 | 1.68 ± 0.029 | 0.561 ± 0.15
3 | AGUCGA | 0.423 ± 0.022 | 1.95 ± 0.035 | 1.61 ± 0.058 | 0.654 ± 0.0092
4 | CGGCAU | -0.119 ± 0.0088 | 1.9 ± 0.037 | 1.56 ± 0.1 | 0.0858 ± 0.0049
5 | UGUGGA | -0.645 ± 0.11 | 1.91 ± 0.06 | 1.52 ± 0.12 | -0.186 ± 0.061
6 | UGGAGU | 0.221 ± 0.061 | 1.78 ± 0.019 | 1.32 ± 0.051 | 0.602 ± 0.023
7 | UGGAGG | 0.223 ± 0.0051 | 1.73 ± 0.018 | 1.26 ± 0.072 | 0.592 ± 0.036
8 | AGGUUG | 0.0275 ± 0.013 | 1.88 ± 0.021 | 1.48 ± 0.042 | 0.557 ± 0.036
9 | GGGCAU | -0.045 ± 0.015 | 1.933 ± 0.012 | 1.83 ± 0.075 | 0.103 ± 0.018
10 | GGGCAG | 0.0036 ± 0.061 | 1.881 ± 0.013 | 1.5894 ± 0.0015 | 0.434 ± 0.012
11 | GGGCAA | 0.0453 ± 0.045 | 1.963 ± 0.0095 | 1.783 ± 0.013 | 0.266 ± 0.015
12 | AGGCGG | 0.194 ± 0.017 | 1.841 ± 0.0031 | 1.354 ± 0.01 | 0.536 ± 0.039
13 | AGGCGU | 0.521 ± 0.063 | 1.94 ± 0.02 | 1.67 ± 0.025 | 0.656 ± 0.01
14 | AGUGGA | 0.318 ± 0.0063 | 1.9085 ± 0.001 | 1.62 ± 0.047 | 0.468 ± 0.084
15 | GGGUGA | 0.0881 ± 0.05 | 1.95 ± 0.033 | 1.71 ± 0.031 | 0.487 ± 0.0065
16 | GGGUGG | -0.2387 ± 0.0022 | 1.91 ± 0.046 | 1.54 ± 0.05 | 0.3262 ± 0.0019
17 | GGGUGC | 0.296 ± 0.1 | 1.9 ± 0.036 | 1.52 ± 0.017 | 0.348 ± 0.011
18 | AGGGCA | 0.0731 ± 0.046 | 1.97 ± 0.02 | 1.815 ± 0.016 | 0.174 ± 0.034
19 | AGGGCG | 0.511 ± 0.024 | 1.91 ± 0.028 | 1.57 ± 0.1 | 0.709 ± 0.089
20 | AGUGAU | 0.509 ± 0.14 | 1.91 ± 0.065 | 1.77 ± 0.047 | 0.534 ± 0.019
21 | AGGUCA | 0.881 ± 0.045 | 1.94 ± 0.071 | 1.68 ± 0.052 | 0.729 ± 0.035
22 | AGGUCG | 0.151 ± 0.023 | 1.861 ± 0.0041 | 1.53 ± 0.092 | 0.463 ± 0.049
23 | GGGUUA | 0.574 ± 0.047 | 1.99 ± 0.018 | 1.845 ± 0.013 | 0.558 ± 0.01
24 | GGGUUG | 0.034 ± 0.047 | 1.92 ± 0.024 | 1.64 ± 0.073 | 0.486 ± 0.065

Row | Variant | FACS-Seq fitted mean (log10) (hypoxanthine [1]) | normalized RNA/DNA level with ligand (log10) (hypoxanthine [2]) | normalized RNA/DNA level without ligand (log10) (hypoxanthine [3]) | FACS-Seq fitted mean (log10) (hypoxanthine [4])
25 | CGGUUC | 0.133 ± 0.2 | 1.964 ± 0.01 | 1.79 ± 0.066 | 0.211 ± 0.024
26 | GGGGGC | 0.564 ± 0.051 | 1.85 ± 0.06 | 1.51 ± 0.023 | 0.468 ± 0.037
27 | GGGGGU | 0.334 ± 0.062 | 1.935 ± 0.0072 | 1.86 ± 0.02 | 0.316 ± 0.064
28 | CGUACA | 0.575 ± 0.038 | 1.92 ± 0.061 | 1.72 ± 0.037 | 0.49 ± 0.085
29 | CGUACC | 0.313 ± 0.054 | 1.98 ± 0.065 | 1.89 ± 0.021 | 0.536 ± 0.047
30 | GGUGAG | -0.242 ± 0.013 | 1.77 ± 0.063 | 1.29 ± 0.086 | 0.303 ± 0.045
31 | GGUGAU | 0.445 ± 0.047 | 1.93 ± 0.039 | 1.763 ± 0.012 | 0.5584 ± 0.0013
32 | GGUGAC | 0.507 ± 0.018 | 1.8808 ± 0.00054 | 1.798 ± 0.0044 | 0.543 ± 0.1
33 | CGGAGU | 0.289 ± 0.057 | 1.91 ± 0.024 | 1.78 ± 0.074 | 0.556 ± 0.041
34 | CGGAGG | 0.0652 ± 0.064 | 1.78 ± 0.12 | 1.28 ± 0.021 | 0.528 ± 0.0064
35 | CGGGCU | 0.773 ± 0.061 | 1.946 ± 0.019 | 1.954 ± 0.0037 | 0.578 ± 0.023
36 | AGGUGA | 0.38 ± 0.046 | 1.86 ± 0.028 | 1.46 ± 0.04 | 0.623 ± 0.045
37 | GGGGAG | -0.274 ± 0.0067 | 1.812 ± 0.0043 | 1.46 ± 0.013 | -0.0598 ± 0.036
38 | GGGGAA | 0.623 ± 0.047 | 1.91 ± 0.032 | 1.66 ± 0.022 | 0.751 ± 0.032
39 | CGGUAU | 0.0356 ± 0.0062 | 1.79 ± 0.05 | 1.41 ± 0.016 | 0.468 ± 0.05
40 | CGGUAG | 0.498 ± 0.066 | 1.9 ± 0.036 | 1.61 ± 0.029 | 0.506 ± 0.0093
41 | CGGUAA | 0.258 ± 0.03 | 1.814 ± 0.002 | 1.27 ± 0.058 | 0.537 ± 0.027
42 | UGUAAG | 0.327 ± 0.084 | 1.9 ± 0.033 | 1.67 ± 0.063 | 0.586 ± 0.075
43 | GGGAUG | 0.0328 ± 0.0034 | 1.79 ± 0.043 | 1.323 ± 0.0058 | 0.564 ± 0.02
44 | UGUACA | 0.848 ± 0.044 | 1.919 ± 0.018 | 1.85 ± 0.066 | 0.78 ± 0.076
45 | UGUACU | 0.71 ± 0.019 | 1.933 ± 0.012 | 1.8501 ± 0.00062 | 0.66 ± 0.018
46 | AGUCAU | 0.385 ± 0.052 | 1.92 ± 0.0085 | 1.79 ± 0.023 | 0.509 ± 0.025
47 | UGUGCG | -0.404 ± 0.074 | 1.933 ± 0.015 | 1.684 ± 0.014 | 0.178 ± 0.0062
48 | GGUCUA | 0.4701 ± 0.0031 | 1.896 ± 0.0023 | 1.9 ± 0.022 | 0.586 ± 0.022

Row | Variant | FACS-Seq fitted mean (log10) (hypoxanthine [1]) | normalized RNA/DNA level with ligand (log10) (hypoxanthine [2]) | normalized RNA/DNA level without ligand (log10) (hypoxanthine [3]) | FACS-Seq fitted mean (log10) (hypoxanthine [4])
49 | UGUCGG | 0.0812 ± 0.15 | 1.9 ± 0.04 | 1.543 ± 0.01 | 0.151 ± 0.019
50 | UGUCGU | 0.313 ± 0.02 | 1.91 ± 0.036 | 1.61 ± 0.041 | 0.591 ± 0.008
51 | AGGGGC | 0.795 ± 0.067 | 1.95 ± 0.047 | 1.86 ± 0.079 | 0.741 ± 0.049
52 | AGGGGG | 0.363 ± 0.12 | 1.88 ± 0.034 | 1.53 ± 0.07 | 0.631 ± 0.028
53 | GGGGUA | 0.00434 ± 0.0088 | 1.94 ± 0.064 | 1.837 ± 0.0033 | 0.179 ± 0.094
54 | UGGAUG | 0.4451 ± 0.0015 | 1.92 ± 0.025 | 1.659 ± 0.0063 | 0.341 ± 0.018
55 | UGGUCG | -0.282 ± 0.14 | 1.924 ± 0.012 | 1.79 ± 0.06 | -0.0942 ± 0.036
56 | UGGUCA | 0.761 ± 0.06 | 1.97 ± 0.043 | 1.84 ± 0.025 | 0.607 ± 0.11
57 | UGGGGA | 0.00194 ± 0.046 | 1.88 ± 0.041 | 1.48 ± 0.029 | 0.376 ± 0.0086
58 | CGUCAA | 0.13 ± 0.025 | 1.96 ± 0.023 | 1.807 ± 0.016 | 0.3 ± 0.077
59 | UGUCCU | 0.984 ± 0.042 | 1.95 ± 0.091 | 1.93 ± 0.039 | 0.87 ± 0.054
60 | UGUCCC | 0.383 ± 0.13 | 2 ± 0.12 | 1.935 ± 0.013 | 0.29 ± 0.068
61 | CGUGAA | -0.0193 ± 0.0065 | 1.87 ± 0.051 | 1.6 ± 0.029 | 0.148 ± 0.033
62 | AGUAUA | 0.449 ± 0.0061 | 1.91 ± 0.079 | 1.7692 ± 0.0007 | 0.472 ± 0.057
63 | GGGUCC | 0.29 ± 0.12 | 2 ± 0.023 | 1.991 ± 0.019 | 0.3574 ± 0.0012
64 | UGUGAC | 0.481 ± 0.0063 | 1.94 ± 0.022 | 1.839 ± 0.0072 | 0.42 ± 0.077
65 | GGUGGA | 0.261 ± 0.029 | 1.951 ± 0.0027 | 1.71 ± 0.026 | 0.43 ± 0.028
66 | GGUGGC | 0.217 ± 0.017 | 1.89 ± 0.039 | 1.57 ± 0.025 | 0.392 ± 0.007
67 | AGGAUG | 0.132 ± 0.024 | 1.79 ± 0.042 | 1.25 ± 0.045 | 0.526 ± 0.06
68 | AGGAUA | -0.536 ± 0.015 | 1.9 ± 0.027 | 1.677 ± 0.0074 | -0.0798 ± 0.042
69 | AGUCCU | 0.767 ± 0.076 | 1.92 ± 0.085 | 1.895 ± 0.015 | 0.719 ± 0.034
70 | CGGUGU | 0.576 ± 0.076 | 1.965 ± 0.011 | 1.85 ± 0.031 | 0.586 ± 0.029
71 | AGGCAU | -0.0543 ± 0.062 | 1.92 ± 0.067 | 1.8 ± 0.047 | 0.027 ± 0.034
72 | AGGCAG | 0.337 ± 0.023 | 1.82 ± 0.037 | 1.45 ± 0.0028 | 0.534 ± 0.015
